Data: US7019123

Target: Tissue Factor VIIa (UniProt P13726)
Experiment: enzyme inhibition; Tissue Factor VIIa

B1: recombinant placental bikunin (1-170) from baculovirus/Sf9 cells (protein)
chain: ADRERSIHDFCLVSKVVGRCRASMPRWWYNVTDGSCQLFVYGGCDGNSNNYLTKEECLKKCATVTENATGDLATSRNAADSSVPSAPRRQDSEDHSSDMFNYEEYCTANAVTGPCRASFPRWYFDVERNSCNNFIYGGCRGNKNSYRSEEACMLRCFRQQENPPLPLGSK
modifications: chain 1 pos 30: Asn probably N-glycosylated (no PTH residue at cycle 30), written N; six intrachain disulfides of the two Kunitz domains
- Ki: 0.8 µM
